To fix the notation:
B1: Protein arginine N-methyltransferase 1 (Saccharomyces cerevisiae), P38074 (parent)
chain: MSKTAVKDSATEKTKLSESEQHYFNSYDHYGIHEEMLQDTVRTLSYRNAIIQNKDLFKDKIVLDVGCGTGILSMFAAKHGAKHVIGVDMSSIIEMAKELVELNGFSDKITLLRGKLEDVHLPFPKVDIIISEWMGYFLLYESMMDTVLYARDHYLVEGGLIFPDKCSIHLAGLEDSQYKDEKLNYWQDVYGFDYSPFVPLVLHEPIVDTVERNNVNTTSDKLIEFDLNTVKISDLAFKSNFKLTAKRQDMINGIVTWFDIVFPAPKGKRPVEFSTGPHAPYTHWKQTIFYFPDDLDAETGDTIEGELVCSPNEKNNRDLNIKISYKFESNGIDGNSRSRKNEGSYLMH
B2: Protein arginine N-methyltransferase 1 (Saccharomyces cerevisiae), P38074 (parent)
chain: B1 chain
partner: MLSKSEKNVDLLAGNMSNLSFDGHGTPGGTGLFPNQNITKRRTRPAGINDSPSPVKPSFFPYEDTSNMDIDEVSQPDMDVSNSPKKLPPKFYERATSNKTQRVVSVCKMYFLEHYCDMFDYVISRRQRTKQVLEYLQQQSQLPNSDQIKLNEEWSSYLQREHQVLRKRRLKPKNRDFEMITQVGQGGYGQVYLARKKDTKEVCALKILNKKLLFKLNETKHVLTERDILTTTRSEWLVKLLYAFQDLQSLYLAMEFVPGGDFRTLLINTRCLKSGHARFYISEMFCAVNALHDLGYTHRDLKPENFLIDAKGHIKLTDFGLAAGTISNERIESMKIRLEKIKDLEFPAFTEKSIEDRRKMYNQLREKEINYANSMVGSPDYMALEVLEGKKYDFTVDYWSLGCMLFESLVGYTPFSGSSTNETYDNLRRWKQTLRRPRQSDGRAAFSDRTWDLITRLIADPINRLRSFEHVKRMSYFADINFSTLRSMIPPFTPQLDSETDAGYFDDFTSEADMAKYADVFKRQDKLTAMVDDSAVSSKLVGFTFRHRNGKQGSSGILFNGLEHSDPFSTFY

The variants in the first experiment derive from B1. To be noted: with pp2a2_yeast PPH22, P23595.
Chain of pp2a2_yeast PPH22, P23595 (P23595 whole entry): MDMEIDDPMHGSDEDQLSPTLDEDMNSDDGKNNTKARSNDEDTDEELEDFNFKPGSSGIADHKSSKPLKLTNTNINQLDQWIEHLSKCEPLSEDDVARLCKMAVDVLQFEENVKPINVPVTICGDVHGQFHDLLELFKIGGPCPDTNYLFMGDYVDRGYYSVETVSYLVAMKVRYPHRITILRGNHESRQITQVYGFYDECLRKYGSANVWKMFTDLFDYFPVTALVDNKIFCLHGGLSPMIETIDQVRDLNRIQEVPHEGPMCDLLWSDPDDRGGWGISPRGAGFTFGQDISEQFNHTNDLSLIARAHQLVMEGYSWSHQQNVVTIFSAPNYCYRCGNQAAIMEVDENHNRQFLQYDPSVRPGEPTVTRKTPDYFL
On to S9A, for which the “effect of a mutation on the interaction” value is “disrupting interaction strength”.

Variants of B2 are the subject of a further experiment. To be noted: with dbf2_yeast DBF2, P22204.
As for S9A, the “effect of a mutation on the interaction” value was “disrupting interaction strength”.

The values above are taken from IntAct's records for PubMed 23706744.
